From IntAct's records for PubMed 29892012

B1: Mothers against decapentaplegic homolog 4 (Homo sapiens), Q13485 (parent)
chain: MDNMSITNTPTSNDACLSIVHSLMCHRQGGESETFAKRAIESLVKKLKEKKDELDSLITAITTNGAHPSKCVTIQRTLDGRLQVAGRKGFPHVIYARLWRWPDLHKNELKHVKYCQYAFDLKCDSVCVNPYHYERVVSPGIDLSGLTLQSNAPSSMMVKDEYVHDFEGQPSLSTEGHSIQTIQHPPSNRASTETYSTPALLAPSESNATSTANFPNIPVASTSQPASILGGSHSEGLLQIASGPQPGQQQNGFTGQPATYHHNSTTTWTGSRTAPYTPNLPHHQNGHLQHHPPMPPHPGHYWPVHNELAFQPPISNHPAPEYWCSIAYFEMDVQVGETFKVPSSCPIVTVDGYVDPSGGDRFCLGQLSNVHRTEAIERARLHIGKGVQLECKGEGDVWVRCLSDHAVFVQSYYLDREAGRAPGDAVHKIYPSAYIKVFDLRQCHRQMQQQAATAQAAAAAQAAAVAGNIPGPGSVGGIAPAISLSAAAGIGVDDLRRLCILRMSFVKGWGPDYPRQSIKETPCWIEIHLHRALQLLDEVLHTMPIADPQPLD
B2: Casein kinase II subunit alpha (Homo sapiens), P68400 (parent)
chain: MSGPVPSRARVYTDVNTHRPREYWDYESHVVEWGNQDDYQLVRKLGRGKYSEVFEAINITNNEKVVVKILKPVKKKKIKREIKILENLRGGPNIITLADIVKDPVSRTPALVFEHVNNTDFKQLYQTLTDYDIRFYMYEILKALDYCHSMGIMHRDVKPHNVMIDHEHRKLRLIDWGLAEFYHPGQEYNVRVASRYFKGPELLVDYQMYDYSLDMWSLGCMLASMIFRKEPFFHGHDNYDQLVRIAKVLGTEDLYDYIDKYNIELDPRFNDILGRHSRKRWERFVHSENQHLVSPEALDFLDKLLRYDHQSRLTAREAMEHPYFYTVVKDQARMGSSSMPGGSTPVSSANMMSGISSVPTPSPLGPLAGSPVIAAANPLGMPVPAAAGAQQ
partner: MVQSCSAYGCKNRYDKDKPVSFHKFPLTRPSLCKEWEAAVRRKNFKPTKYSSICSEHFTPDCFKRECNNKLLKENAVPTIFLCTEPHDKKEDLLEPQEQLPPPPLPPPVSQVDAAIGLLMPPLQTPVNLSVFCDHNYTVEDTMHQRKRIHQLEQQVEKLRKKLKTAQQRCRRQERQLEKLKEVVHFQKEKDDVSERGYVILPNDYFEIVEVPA
B3: Zinc finger protein 64 (Homo sapiens), Q9NTW7 (parent)
chain: MNASSEGESFAGSVQIPGGTTVLVELTPDIHICGICKQQFNNLDAFVAHKQSGCQLTGTSAAAPSTVQFVSEETVPATQTQTTTRTITSETQTITVSAPEFVFEHGYQTYLPTESNENQTATVISLPAKSRTKKPTTPPAQKRLNCCYPGCQFKTAYGMKDMERHLKIHTGDKPHKCEVCGKCFSRKDKLKTHMRCHTGVKPYKCKTCDYAAADSSSLNKHLRIHSDERPFKCQICPYASRNSSQLTVHLRSHTASELDDDVPKANCLSTESTDTPKAPVITLPSEAREQMATLGERTFNCCYPGCHFKTVHGMKDLDRHLRIHTGDKPHKCEFCDKCFSRKDNLTMHMRCHTSVKPHKCHLCDYAAVDSSSLKKHLRIHSDERPYKCQLCPYASRNSSQLTVHLRSHTGDTPFQCWLCSAKFKISSDLKRHMIVHSGEKPFKCEFCDVRCTMKANLKSHIRIKHTFKCLHCAFQGRDRADLLEHSRLHQADHPEKCPECSYSCSSAAALRVHSRVHCKDRPFKCDFCSFDTKRPSSLAKHVDKVHRDEAKTENRAPLGKEGLREGSSQHVAKIVTQRAFRCETCGASFVRDDSLRCHKKQHSDQSENKNSDLVTFPPESGASGQLSTLVSVGQLEAPLEPSQDL
partner: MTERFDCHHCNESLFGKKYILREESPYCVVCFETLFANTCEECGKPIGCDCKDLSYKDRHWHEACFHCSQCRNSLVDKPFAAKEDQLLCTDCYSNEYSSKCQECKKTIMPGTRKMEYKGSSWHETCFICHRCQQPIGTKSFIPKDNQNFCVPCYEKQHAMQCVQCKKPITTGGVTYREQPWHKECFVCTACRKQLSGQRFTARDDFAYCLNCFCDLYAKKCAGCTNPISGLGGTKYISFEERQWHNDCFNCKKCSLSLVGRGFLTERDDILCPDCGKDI
B4: Ribosome assembly protein METTL17, mitochondrial (Homo sapiens), Q9H7H0 (parent)
chain: MAAALKCLLTLGRWCPGLGVAPQARALAALVPGVTQVDNKSGFLQKRPHRQHPGILKLPHVRLPQALANGAQLLLLGSAGPTMENQVQTLTSYLWSRHLPVEPEELQRRARHLEKKFLENPDLSQTEEKLRGAVLHALRKTTYHWQELSYTEGLSLVYMAARLDGGFAAVSRAFHEIRARNPAFQPQTLMDFGSGTGSVTWAAHSIWGQSLREYMCVDRSAAMLVLAEKLLKGGSESGEPYIPGVFFRQFLPVSPKVQFDVVVSAFSLSELPSKADRTEVVQTLWRKTGHFLVLVENGTKAGHSLLMDARDLVLKGKEKSPLDPRPGFVFAPCPHELPCPQLTNLACSFSQAYHPIPFSWNKKPKEEKFSMVILARGSPEEAHRWPRITQPVLKRPRHVHCHLCCPDGHMQHAVLTARRHGRDLYRCARVSSWGDLLPVLTPSAFPPSTAQDPSES
partner: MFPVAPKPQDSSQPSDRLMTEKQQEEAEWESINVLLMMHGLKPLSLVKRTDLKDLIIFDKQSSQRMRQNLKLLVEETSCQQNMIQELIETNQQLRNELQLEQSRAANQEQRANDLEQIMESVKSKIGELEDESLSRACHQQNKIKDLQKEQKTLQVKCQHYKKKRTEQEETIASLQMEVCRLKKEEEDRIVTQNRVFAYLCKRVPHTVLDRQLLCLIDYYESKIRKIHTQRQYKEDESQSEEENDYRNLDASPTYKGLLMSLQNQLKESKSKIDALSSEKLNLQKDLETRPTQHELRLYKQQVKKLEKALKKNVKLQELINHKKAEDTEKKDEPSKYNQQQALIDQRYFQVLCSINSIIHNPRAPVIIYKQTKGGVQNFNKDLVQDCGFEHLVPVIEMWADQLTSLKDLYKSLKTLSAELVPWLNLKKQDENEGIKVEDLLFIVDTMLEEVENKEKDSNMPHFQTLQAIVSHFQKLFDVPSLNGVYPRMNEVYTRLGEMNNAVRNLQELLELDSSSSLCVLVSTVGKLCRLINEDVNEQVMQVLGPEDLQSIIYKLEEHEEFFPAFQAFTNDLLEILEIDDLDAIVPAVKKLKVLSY
B5: Syntaxin-3 (Homo sapiens), Q13277 (parent)
chain: MKDRLEQLKAKQLTQDDDTDAVEIAIDNTAFMDEFFSEIEETRLNIDKISEHVEEAKKLYSIILSAPIPEPKTKDDLEQLTTEIKKRANNVRNKLKSMEKHIEEDEVRSSADLRIRKSQHSVLSRKFVEVMTKYNEAQVDFRERSKGRIQRQLEITGKKTTDEELEEMLESGNPAIFTSGIIDSQISKQALSEIEGRHKDIVRLESSIKELHDMFMDIAMLVENQGEMLDNIELNVMHTVDHVEKARDETKKAVKYQSQARKKLIIIIVLVVVLLGILALIIGLSVGLN
partner: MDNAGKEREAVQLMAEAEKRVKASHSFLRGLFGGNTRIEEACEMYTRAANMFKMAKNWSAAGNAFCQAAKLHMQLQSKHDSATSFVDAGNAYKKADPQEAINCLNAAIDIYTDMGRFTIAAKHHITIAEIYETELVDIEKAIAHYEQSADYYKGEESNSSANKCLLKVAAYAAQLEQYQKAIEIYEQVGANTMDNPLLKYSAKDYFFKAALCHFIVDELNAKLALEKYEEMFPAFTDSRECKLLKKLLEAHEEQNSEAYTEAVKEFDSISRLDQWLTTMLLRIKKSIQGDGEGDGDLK
B6: Enhancer of mRNA-decapping protein 3 (Homo sapiens), Q96F86 (parent)
chain: MATDWLGSIVSINCGDSLGVYQGRVSAVDQVSQTISLTRPFHNGVKCLVPEVTFRAGDITELKILEIPGPGDNQHFGDLHQTELGPSGAGCQVGINQNGTGKFVKKPASSSSAPQNIPKRTDVKSQDVAVSPQQQQCSKSYVDRHMESLSQSKSFRRRHNSWSSSSRHPNQATPKKSGLKNGQMKNKDDECFGDDIEEIPDTDFDFEGNLALFDKAAVFEEIDTYERRSGTRSRGIPNERPTRYRHDENILESEPIVYRRIIVPHNVSKEFCTDSGLVVPSISYELHKKLLSVAEKHGLTLERRLEMTGVCASQMALTLLGGPNRLNPKNVHQRPTVALLCGPHVKGAQGISCGRHLANHDVQVILFLPNFVKMLESITNELSLFSKTQGQQVSSLKDLPTSPVDLVINCLDCPENVFLRDQPWYKAAVAWANQNRAPVLSIDPPVHEVEQGIDAKWSLALGLPLPLGEHAGRIYLCDIGIPQQVFQEVGINYHSPFGCKFVIPLHSA
partner: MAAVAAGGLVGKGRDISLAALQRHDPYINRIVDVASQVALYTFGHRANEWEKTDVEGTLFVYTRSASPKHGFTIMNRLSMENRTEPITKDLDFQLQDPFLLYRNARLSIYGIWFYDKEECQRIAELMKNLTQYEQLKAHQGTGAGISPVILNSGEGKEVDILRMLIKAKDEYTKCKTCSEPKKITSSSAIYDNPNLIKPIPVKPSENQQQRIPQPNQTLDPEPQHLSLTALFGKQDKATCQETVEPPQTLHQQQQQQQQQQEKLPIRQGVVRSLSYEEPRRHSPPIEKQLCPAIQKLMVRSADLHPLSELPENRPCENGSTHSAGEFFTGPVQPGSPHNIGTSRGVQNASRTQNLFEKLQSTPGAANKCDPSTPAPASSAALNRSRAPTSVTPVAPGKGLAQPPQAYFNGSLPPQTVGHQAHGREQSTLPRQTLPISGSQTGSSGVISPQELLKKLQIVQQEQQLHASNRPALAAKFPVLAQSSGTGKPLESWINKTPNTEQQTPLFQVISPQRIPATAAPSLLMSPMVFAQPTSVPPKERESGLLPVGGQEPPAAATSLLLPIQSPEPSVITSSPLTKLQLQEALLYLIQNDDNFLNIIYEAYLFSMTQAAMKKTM

Variants of: B1
Conditions: with ews_human EWSR1, Q01844
Sequence of ews_human EWSR1, Q01844 (Q01844 whole entry): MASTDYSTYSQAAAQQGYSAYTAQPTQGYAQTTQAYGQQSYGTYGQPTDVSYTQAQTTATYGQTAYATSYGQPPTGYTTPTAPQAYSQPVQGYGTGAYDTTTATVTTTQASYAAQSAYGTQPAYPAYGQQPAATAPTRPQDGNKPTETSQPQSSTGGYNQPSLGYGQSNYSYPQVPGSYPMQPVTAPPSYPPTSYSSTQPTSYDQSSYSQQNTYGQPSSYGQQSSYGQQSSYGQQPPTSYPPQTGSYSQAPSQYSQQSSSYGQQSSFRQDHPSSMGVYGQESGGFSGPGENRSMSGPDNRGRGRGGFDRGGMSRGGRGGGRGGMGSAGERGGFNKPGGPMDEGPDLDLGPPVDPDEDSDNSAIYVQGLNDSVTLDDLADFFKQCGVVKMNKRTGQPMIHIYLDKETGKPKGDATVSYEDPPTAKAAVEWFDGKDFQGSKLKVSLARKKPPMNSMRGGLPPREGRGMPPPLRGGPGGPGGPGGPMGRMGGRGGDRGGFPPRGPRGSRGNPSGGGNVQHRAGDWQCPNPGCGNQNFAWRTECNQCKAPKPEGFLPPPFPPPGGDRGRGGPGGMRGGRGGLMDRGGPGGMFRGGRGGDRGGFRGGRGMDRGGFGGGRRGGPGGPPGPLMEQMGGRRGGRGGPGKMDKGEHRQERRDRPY

effect of a mutation on the interaction	Variant
disrupting interaction strength	I500V

Variants of: B1
Conditions: with smad3_human SMAD3, P84022
Sequence of smad3_human SMAD3, P84022 (P84022 whole entry, looked up): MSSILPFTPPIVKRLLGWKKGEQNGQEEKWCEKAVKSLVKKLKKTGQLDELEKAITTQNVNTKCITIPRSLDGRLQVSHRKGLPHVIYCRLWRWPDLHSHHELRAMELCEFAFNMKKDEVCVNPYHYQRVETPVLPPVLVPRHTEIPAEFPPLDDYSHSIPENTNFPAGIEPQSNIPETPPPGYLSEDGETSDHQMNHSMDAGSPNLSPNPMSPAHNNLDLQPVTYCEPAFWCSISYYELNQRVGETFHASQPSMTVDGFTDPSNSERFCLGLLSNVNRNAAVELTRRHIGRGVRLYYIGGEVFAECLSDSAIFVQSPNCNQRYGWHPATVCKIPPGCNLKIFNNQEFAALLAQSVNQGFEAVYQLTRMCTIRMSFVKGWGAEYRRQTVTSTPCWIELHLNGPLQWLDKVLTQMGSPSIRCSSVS

effect of a mutation on the interaction	Variant
with no effect	I500V

Variants of: B2
Conditions: with thap1_human THAP1, Q9NVV9

effect of a mutation on the interaction	Variant
with no effect	K198R

Variants of: B3
Conditions: with fhl2_human FHL2, Q14192

effect of a mutation on the interaction	Variant
with no effect	D227E

Variants of: B4
Conditions: with cep70_human CEP70, Q8NHQ1

effect of a mutation on the interaction	Variant
with no effect	R212H

Variants of: B5
Conditions: with snab_human NAPB

effect of a mutation on the interaction	Variant
disrupting interaction strength	K199E

Variants of: B6
Conditions: with dcp1b_human DCP1B

effect of a mutation on the interaction	Variant
with no effect	F213L
